# Test results from publication PMC10872493.
# Where “and” joins values, the source holds several entries; their conditions need not be identical. Equal values may be shown once.
# Legend:
# [1] = target: CP α1S9C β2S161C, labeled with donor and acceptor dyes (single-molecule FRET construct) (mouse) (UniProt Q5RKN9); test: single-molecule FRET titration
# [2] = target: CP α1N44C β2E84C, labeled with donor and acceptor dyes (single-molecule FRET construct) (mouse) (UniProt Q5RKN9); test: single-molecule FRET titration
Substance,Kd [1] [nM],Kd [2]
WASHCAP CPI-motif peptide,1.4,–
CKIP-1 CPI-motif peptide,–,10 nM and 11 nM
